Test results: the supplement of paper PMC9112550, “Optimization of the antimicrobial peptide Bac7 by deep mutational scanning” (BMC Biology, 2022)

These sequences were tested on Escherichia coli TOP10 (assay: shrunken log2 fold change of peptide-encoding DNA abundance (4.5 h post-induction vs induction); higher = less antimicrobial activity (less host growth inhibition)). Details: time post-induction: 4.5 h; library: site-saturation at positions 5, 18, 19, 20.
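Also: peptides expressed intracellularly from a pBAD plasmid library in pooled LB shake-flask culture, induced with 0.3% L-arabinose, DNA abundance read by NGS, three biological replicates, DESeq2 with apeglm shrinkage.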

Row | Sequence | shrunken log2 fold change
1 | RRIRDRPPRLPRPRPRPWKMPRP | 0.0664
2 | RRIRHRPPRLPRPRPRPVCNPRP | -0.761
3 | RRIRKRPPRLPRPRPRPNPMPRP | 0.459
4 | RRIRGRPPRLPRPRPRPPSVPRP | 0.645
5 | RRIRHRPPRLPRPRPRPAHDPRP | 0.0776
6 | RRIRQRPPRLPRPRPRPGETPRP | 0.0131
7 | RRIRHRPPRLPRPRPRPYVVPRP | 0.0242
8 | RRIRKRPPRLPRPRPRPCAFPRP | 0.0922
9 | RRIRRRPPRLPRPRPRPVYFPRP | -0.267
10 | RRIRERPPRLPRPRPRPFCPPRP | -0.149
11 | RRIRGRPPRLPRPRPRPCDCPRP | -0.0193
12 | RRIRDRPPRLPRPRPRPMSKPRP | 0.101
13 | RRIRSRPPRLPRPRPRPVASPRP | -0.151
14 | RRIRFRPPRLPRPRPRPFSEPRP | -0.0573
15 | RRIRLRPPRLPRPRPRPAHHPRP | 0.0653
16 | RRIRGRPPRLPRPRPRPCACPRP | 0.225
17 | RRIRCRPPRLPRPRPRPEMDPRP | 0.0321
18 | RRIRERPPRLPRPRPRPMIVPRP | -0.477
19 | RRIRARPPRLPRPRPRPTCWPRP | 0.651
20 | RRIRHRPPRLPRPRPRPPHTPRP | 0.249
21 | RRIRIRPPRLPRPRPRPEIFPRP | -0.0951
22 | RRIRGRPPRLPRPRPRPYCDPRP | 0.226
23 | RRIRDRPPRLPRPRPRPTQCPRP | -0.0857
24 | RRIRPRPPRLPRPRPRPICSPRP | -0.014
25 | RRIRTRPPRLPRPRPRPLACPRP | 0.0365

Row | Sequence | shrunken log2 fold change
26 | RRIRKRPPRLPRPRPRPHTDPRP | -0.0857
27 | RRIRLRPPRLPRPRPRPRLNPRP | -0.0854
28 | RRIRNRPPRLPRPRPRPWKTPRP | 0.0489
29 | RRIRSRPPRLPRPRPRPTQRPRP | 0.547
30 | RRIRQRPPRLPRPRPRPFIEPRP | -0.0062
31 | RRIRLRPPRLPRPRPRPQYFPRP | -0.158
32 | RRIRFRPPRLPRPRPRPHWYPRP | -0.343
33 | RRIRERPPRLPRPRPRPRGGPRP | 0.376
34 | RRIRKRPPRLPRPRPRPSMMPRP | 0.677
35 | RRIRSRPPRLPRPRPRPTGYPRP | 0.0189
36 | RRIRPRPPRLPRPRPRPMHNPRP | -0.202
37 | RRIRSRPPRLPRPRPRPEGIPRP | 0.0592
38 | RRIRERPPRLPRPRPRPFLCPRP | -0.143
39 | RRIRWRPPRLPRPRPRPPTWPRP | 0.802
40 | RRIRHRPPRLPRPRPRPCCAPRP | -0.0125
41 | RRIRSRPPRLPRPRPRPMPGPRP | -0.102
42 | RRIRSRPPRLPRPRPRPGFRPRP | 0.165
43 | RRIRDRPPRLPRPRPRPSGGPRP | 0.356
44 | RRIRNRPPRLPRPRPRPIAHPRP | -0.0737
45 | RRIRTRPPRLPRPRPRPNTRPRP | -0.318
46 | RRIRARPPRLPRPRPRPNEKPRP | -0.0878
47 | RRIRQRPPRLPRPRPRPEWDPRP | 0.0586
48 | RRIRLRPPRLPRPRPRPNEMPRP | 0.0287
49 | RRIRTRPPRLPRPRPRPIDAPRP | -0.0859
50 | RRIRHRPPRLPRPRPRPQERPRP | -0.0325

Row | Sequence | shrunken log2 fold change
51 | RRIRCRPPRLPRPRPRPSGMPRP | -0.35
52 | RRIRKRPPRLPRPRPRPSQQPRP | 0.312
53 | RRIRQRPPRLPRPRPRPFPYPRP | 0.0303
54 | RRIRSRPPRLPRPRPRPCNVPRP | -0.175
55 | RRIRARPPRLPRPRPRPPDKPRP | 0.572
56 | RRIRIRPPRLPRPRPRPDMNPRP | -0.146
57 | RRIRHRPPRLPRPRPRPIHMPRP | -0.141
58 | RRIRNRPPRLPRPRPRPPPFPRP | 0.47
59 | RRIRSRPPRLPRPRPRPICMPRP | 0.177
60 | RRIRRRPPRLPRPRPRPYTRPRP | 0.000194
61 | RRIRKRPPRLPRPRPRPCDIPRP | -0.0579
62 | RRIRTRPPRLPRPRPRPIWTPRP | 0.00694
63 | RRIRCRPPRLPRPRPRPPPWPRP | 1.06
64 | RRIRWRPPRLPRPRPRPILEPRP | -0.548
65 | RRIRTRPPRLPRPRPRPMWPPRP | -0.0463
66 | RRIRVRPPRLPRPRPRPVTKPRP | 0.261
67 | RRIRRRPPRLPRPRPRPPNHPRP | 0.234
68 | RRIRNRPPRLPRPRPRPRRYPRP | 0.0725
69 | RRIRERPPRLPRPRPRPKNDPRP | -0.467
70 | RRIRYRPPRLPRPRPRPHRIPRP | -0.474
71 | RRIRGRPPRLPRPRPRPFRWPRP | 0.053
72 | RRIRSRPPRLPRPRPRPYVYPRP | -0.852
73 | RRIRKRPPRLPRPRPRPGPMPRP | 0.595
74 | RRIRRRPPRLPRPRPRPGGVPRP | 0.483
75 | RRIRMRPPRLPRPRPRPPNSPRP | 0.128

Row | Sequence | shrunken log2 fold change
76 | RRIRPRPPRLPRPRPRPFMHPRP | 0.0361
77 | RRIRQRPPRLPRPRPRPFHLPRP | -0.0558
78 | RRIRPRPPRLPRPRPRPVINPRP | -0.626
79 | RRIRRRPPRLPRPRPRPKLTPRP | 0.0538
80 | RRIRLRPPRLPRPRPRPMQAPRP | -0.0495
81 | RRIRPRPPRLPRPRPRPHRHPRP | -0.47
82 | RRIRCRPPRLPRPRPRPRMLPRP | 0.0183
83 | RRIRQRPPRLPRPRPRPQYGPRP | -0.0763
84 | RRIRGRPPRLPRPRPRPATWPRP | 0.565
85 | RRIRSRPPRLPRPRPRPNGEPRP | 0.0431
86 | RRIRARPPRLPRPRPRPRAIPRP | 0.358
87 | RRIRYRPPRLPRPRPRPFSCPRP | -0.0516
88 | RRIRRRPPRLPRPRPRPCKMPRP | -0.0577
89 | RRIRTRPPRLPRPRPRPWSFPRP | -0.0893
90 | RRIRMRPPRLPRPRPRPRQPPRP | 0.805
91 | RRIRSRPPRLPRPRPRPQMTPRP | -0.0755
92 | RRIRRRPPRLPRPRPRPPSQPRP | 0.46
93 | RRIRMRPPRLPRPRPRPKIWPRP | 0.704
94 | RRIRCRPPRLPRPRPRPRENPRP | 0.439
95 | RRIRWRPPRLPRPRPRPEEVPRP | -0.0142
96 | RRIRERPPRLPRPRPRPCNFPRP | -0.125
97 | RRIRLRPPRLPRPRPRPCSFPRP | -0.051
98 | RRIRERPPRLPRPRPRPTMKPRP | -0.0369
99 | RRIRCRPPRLPRPRPRPWKFPRP | -0.318
100 | RRIRKRPPRLPRPRPRPWMGPRP | -0.0352

Row | Sequence | shrunken log2 fold change
101 | RRIRNRPPRLPRPRPRPISMPRP | -0.0881
102 | RRIRFRPPRLPRPRPRPEDHPRP | 0.000834
103 | RRIRTRPPRLPRPRPRPYSPPRP | -0.226
104 | RRIRERPPRLPRPRPRPNRAPRP | 0.0169
105 | RRIRQRPPRLPRPRPRPKCTPRP | -0.0317
106 | RRIRYRPPRLPRPRPRPRNQPRP | -0.32
107 | RRIRPRPPRLPRPRPRPPTGPRP | 0.452
108 | RRIRKRPPRLPRPRPRPFSMPRP | -0.489
109 | RRIRFRPPRLPRPRPRPINEPRP | -0.11
110 | RRIRGRPPRLPRPRPRPVLVPRP | 0.628
111 | RRIRSRPPRLPRPRPRPYMNPRP | -0.479
112 | RRIRFRPPRLPRPRPRPAQRPRP | 0.302
113 | RRIRARPPRLPRPRPRPRKAPRP | 0.0975
114 | RRIRSRPPRLPRPRPRPQVWPRP | 0.675
115 | RRIRSRPPRLPRPRPRPFRHPRP | -0.0389
116 | RRIRQRPPRLPRPRPRPCTFPRP | -0.121
117 | RRIRQRPPRLPRPRPRPHRDPRP | -0.322
118 | RRIRPRPPRLPRPRPRPTGCPRP | 0.0367
119 | RRIRRRPPRLPRPRPRPYTWPRP | -0.299
120 | RRIRFRPPRLPRPRPRPSKLPRP | -0.42
121 | RRIRLRPPRLPRPRPRPKKEPRP | -0.0307
122 | RRIRERPPRLPRPRPRPAINPRP | -0.257
123 | RRIRWRPPRLPRPRPRPYAPPRP | -0.232
124 | RRIRDRPPRLPRPRPRPIHWPRP | -0.18
125 | RRIRMRPPRLPRPRPRPQSQPRP | 0.226

Row | Sequence | shrunken log2 fold change
126 | RRIRDRPPRLPRPRPRPFTMPRP | -0.0235
127 | RRIRNRPPRLPRPRPRPEVPPRP | 0.095
128 | RRIRHRPPRLPRPRPRPTESPRP | 0.0139
129 | RRIRVRPPRLPRPRPRPCINPRP | 0.0189
130 | RRIRERPPRLPRPRPRPSLDPRP | -0.35
131 | RRIRHRPPRLPRPRPRPTQHPRP | -0.0131
132 | RRIRYRPPRLPRPRPRPRYMPRP | -0.33
133 | RRIRFRPPRLPRPRPRPDYLPRP | -0.159
134 | RRIRSRPPRLPRPRPRPMALPRP | 0.213
135 | RRIRPRPPRLPRPRPRPDNVPRP | 0.115
136 | RRIRHRPPRLPRPRPRPCACPRP | -0.176
137 | RRIRFRPPRLPRPRPRPFQWPRP | -0.507
138 | RRIRVRPPRLPRPRPRPIAPPRP | 0.328
139 | RRIRPRPPRLPRPRPRPWQRPRP | -0.0107
140 | RRIRYRPPRLPRPRPRPKRRPRP | 0.0144
141 | RRIRVRPPRLPRPRPRPPPMPRP | 0.641
142 | RRIRYRPPRLPRPRPRPEILPRP | -0.288
143 | RRIRERPPRLPRPRPRPCALPRP | -0.319
144 | RRIRSRPPRLPRPRPRPPPTPRP | 0.914
145 | RRIRLRPPRLPRPRPRPKDYPRP | -0.0534
146 | RRIRCRPPRLPRPRPRPNCAPRP | 0.00777
147 | RRIRQRPPRLPRPRPRPKKNPRP | 0.0205
148 | RRIRIRPPRLPRPRPRPTARPRP | 0.0575
149 | RRIRKRPPRLPRPRPRPGKAPRP | -0.0571
150 | RRIRFRPPRLPRPRPRPGEYPRP | -0.114
